The DeepSol protein solubility set

Assay: soluble on expression in E. coli; label from the status in PepcDB or PDB records

Row | Sequence | soluble on expression in E. coli
1 | MSLTTRIGFLLFPGFPMACLTSIIEPLRAANEISMSDSFAWRLVSELPRKVVSSAGITFEPDASLETVSALDYLVLLSAPVARFENPRTASLLRRIERHGTVLGAISGGVFPLVRSGVVRDERLSVHWCYEAAFAAEFPEIQRSNEVIEISPRLLTASGAAAAFDLALSLIEAALGANVANEVACWFQHPIMRKAGVKQALPIHQAADAEGEMSPLVARAIEIFAENLTTPASIAAIAERLHITPRHLERCFKQATGQNPTGYFRHLRMQAARQIVMYTNDSIAEVATAVGYANAKPLVRHYRDTFGLTPQQDRKRINLYRVEGNEGHHHHHH | not soluble
2 | MGHHHHHHSHMTLEEFSAGEQKTERMDKVGDALEEVLSKALSQRTITVGVYEAAKLLNVDPDNVVLCLLAADEDDDRDVALQIHFTLIQAFCCENDINILRVSNPGRLAELLLLETDAGPAASEGAEQPPDLHCVLVTNPHSSQWKDPALSQLICFCRESRYMDQWVPVINLPER | not soluble
3 | MEKLLSELAELGARQKFNGEIDFGAEIASDSLLEVMKIVGSEELSQQVLEGFLEQAPTIHQVLLGMTFASYLQSTTSGEASPGAQELSEPLKKARRSIRLLLNLTQRSPDFASRISSESVELLETLLATGSFDVECLIILLKTSQATWLEFQKSPRYSALLQRVLSKYSPDFSENSTILAYFSVLFEMDYGFLSMCYAEMDAPTFCEILDVLRVILTRKTLKIHSNNLLFVLNLLELVVVDYEAFWRARERKEPQSVEQRRVATVEILNLEVEIVGEMCSNTEMTSYLNEKATAMNSVVDVLDAVSIFRNKISIFLDFFQILHAEALFADFRAEQPSDWPKIESEHPRFEVLKRKIEEERRYEETQRRYPDRPRQPLPPKIQRVESSESLSLLANTIFSKYRSIDDVIGVPRVGELKLNCLKAIANLANLSDSNKLATLQNGRQGLISVLQCTTRRPEYFLESFTMRNQSIFCVRQLTDGCQENKEVVFNLQQPNQPIIDRKRLLEELGVHVDN | not soluble
4 | MQHLTERMTQIAKLLNSSANNPDIDIPDFLTEIKDYSEFSVTDENGTYLHWDKFRRIHTEDTRMKWRAVKESRKKIQKPIDFPFEHQFWFCIPDSLQARLHLIDKSCGSSIGTSSLGGFGRSEQNRFLLKSLIMEEAITSAQLEGAATTRKVAKDMLKSQRKPKTKDEIMIVNNYHLMKKAVELKNTPLSVEMILDLHRIATSNAIENKAEPGQFRQDDEIFIADINGNSLYQPPPHGQVHTLMEEVCAFANNTYDGVENPFIHPVVQAIILHFLIGYIHPFGDGNGRTARALFYWFMLKNGYWLFEYISISRLLKNAPAQYAKSYLYAETDDLDLTYFIYYQCDIIKRAVADLEHYISDKQKHQQEFKAAIAQYTEKIGKLNQRQIGILQKAVEESGKIFTAQEIANQYGISLNTARSDLSKLGEYRFLVPFKSGNALEYVAPQDLLERLEKK | not soluble
5 | MLQVCCYTSEGYKYAVGIDLVRFFDTVNHSFLLRILSRTINDGRVISLIHKYLTSGVMIGKHYEPSIEGTPQGAPLSPLLSNILLNELDKELERRGHCFVRYADDSMILCKSKRSAERVCSSITDFSFYFTKGKCRLCVHKTTKEKFKRKVKSLTRRSNSMGYAQRKEILWQTFRGWIGYFKYADMRSLLIPLDQWYRRHLRMCIWKCWKRVKTRFSNLQKCGIPKGKA | not soluble
6 | MSLKIAIVNDMPMAVEALRRALAFDPSHEVVWVATNGAEAVKYCAELTPDLILMDLIMPVMDGVEATRRIMAESPCAIVIVTVDRQQNVHRVFEAMGHGALDVVDTPALGAGNAQEAAAPLLRKILNIGWLIGQEGHHHHHH | not soluble
7 | MGSSHHHHHHSSGENLYFQGHMNVLVIGRGGREHAIAWKAAQSPLVGKLYVAPGNPGIADVAELVHIDELDIEALVQFAKQQAIDLTIVGPEAPLASGIVDRFMAEGLRIFGPSQRAALIEGSKAFAKELMKKYGIPTADHAAFTSYEEAKAYIEQKGAPIVIKADGLAAGKGVTVAQTVEEALAAAKAALVDGQFGTAGSQVVIEEYLEGEEFSFMAFVNGEKVYPLAIAQDHKRAYDGDEGPNTGGMGAYSPVPQISDEMMDAALEAILRPAAKALAAEGRPFLGVLYAGLMATANGPKVIEFNARFGDPEAQVVLPRLKTDLVEAVLAVMDGKELELEWTDEAVLGVVLAAKGYPGAYERGAEIRGLDRISPDALLFHAGTKREGGAWYTNGGRVLLLAAKGETLAKAKEKAYEQLAAIDCDGLFYRRDIGRRAIERASAAYTRMKGR | soluble
8 | MSLGLIVQKFGGTSVGSVEKIQNAANRAIAEKQKGHQVVVVVSAMGKSTDELVSLAKAISDQPSKREMDMLLATGEQVTISLLSMALQEKGYDAVSYTGWQAGIRTEAIHGNARITDIDTSVLADQLEKGKIVIVAGFQGMTEDCEITTLGRGGSDTTAVALAAALKADKCDIYTDVPGVFTTDPRYVKSARKLEGISYDEMLELANLGAGVLHPRAVEFAKNYQVPLEVRSSTETEAGTLIEEESSMEQNLIVRGIAFEDQITRVTIYGLTSGLTTLSTIFTTLAKRNINVDIIIQTQAEDKTGISFSVKTEDADQTVAVLEEYKDALEFEKIETESKLAKVSIVGSGMVSNPGVAAEMFAVLAQKNILIKMVSTSEIKVSTVVSENDMVKAVESLHDAFELSKHPSAVEGHHHHHH | soluble
9 | MHPALWVSKTGLDAQQTNIATISNNLANASTVGYKKSRAVFEDLFYQNINQPGGQSSQNTELPSGLMLGAGSKVVATQKVHTHGNAQTTTNALDMMVEGDGFFQVTLPDGNIGYTRNGQFTLNGEGTLVTSGSGYPVEPEIVI | not soluble
10 | HYNLKASNDAKIMKTLKEARQYEQSAKPTHIQQYFKHLGQMNYQIMTVDQKGHKTFYGEPFREDTLSQNAINNVLNNKDYHGIKDKPFALFVTGFFDNVTDNTVGINFKTKDGSIAVFMRPDIGETFSEFRT | not soluble
11 | MTPDVLFESLWQDYIQRLCPSAAKVHQLLQEDEALINDHIALRTFNVEPLGIETLAKPFLAAGYKACGDYVFESKKLVAKHYEHPDPKQPKVFISELKVEECSPDLQDIVAKLASQVDAEKLSGSAFLHGGRLWDLSFADYQTLAKESEYASWLAAHGYGANHFTVSVNQLNQHDEVKQVNDHLRQAGFVINESGGEVKGSPEVLLEQSSTMADKVPVTFEEGLEIIPGGFYEFAKRYPMENGELYPGFVAASADKIFESTNGLEHHHHHH | soluble
12 | MEMKQKLLTDIELDVHELKLLMNTFSKEPTQTLSELLKRSILRMQERLEQLSEEISAVPVEASPSPVAEAESEAPIVEEQAPVIEEVECPVIEEKVVEENEATAPGEDEPVIVQEPQTVVEEAVIEEPVVEDEMEEKEAEDESEDDESLLIEEPKTAVLGESIKMAAGLRHSISLNDSFRFSREIFGGDPELMNRVIEQISVMSSYKTAVAFLASKVSVNEENEAMIDFLELLKKYFNQSA | soluble
13 | MAHHHHHHMVFYSFVLVMKPRQRRFTSQALREIGVAVYSNGGLIRSITNEGIMRPYSRFRDADNTPLTYARYIILQLDMGEEEMGKVDKIIREHQDVLMALKLNNLERPVGIRSGNKELQAAYFPLDTFTRLEEEINWSPQTSADIYTQLEMNWKEFSRTRWSSFLRN | not soluble
14 | MGSDKIHHHHHHMRHLKAFYVFHITAESSSYSQAAEKLHITHGAVSKQIKLLENHLSQILFYKQGRGMCLTQEGELLKRYTDIAFNTLDSGVKQLTRESHHYLEVSCEPTLTMRWLMPRLASFFQLTGIDVRLSTAGGPVKLAESGLSLAIRRDDFHIPPEYNKHNLVSEWAGPVFSPEYWCQIQQNWGDIVLLHSDSRPSAWSDWSQRSGHNFSTNKSKSFEHFYFCLQAAVDGLGGAIGSYPLIVDDLTSGRLVAPFGFIPSGHHYVLLSHTEKLVNNELSFFNWLEDTLSLCQPKTAKAAKPV | not soluble
15 | MKKVFIPINTKIPVERQFPNRVPIWGNYEFIISTKEPEQEYDYVVVLDDIEYSLRLMCCKQNICLFTGEPPYVKLYPRKYLNQFGHVYTCQSSVLKRDNACLSYPALPWMLYYNFYNDKQKEELLIDYDFLKNRPTLQRKNKICLFTSNKKISKGHIERIKFALKLQEEMPDLIDIYGSGFTNVDYKYEVMVQYKYAIVIENCSYPYYWTEKLADTFLSGCYPIYFGDPHIGDFFSKEEMAVIDIRNFDESKQTIKKIIDNNVYEKQYENICHARDKILDKYNMFSLISSTLDSIPAKLDKEKLLLSPMRLSVFDRIRNRIYRLFYLEHHHHHH | not soluble
